Experimental findings from patent US20220387586A1 (Hoffmann-La Roche, published 2022) are described below.

The target in assay [1] is T1, biotinylated PD1-ECD-AviHis (human, UniProt Q15116 25-170, biotinylated).
T1 construct: also called huPD1; hu PD1; not shown: Avi-His tag
Put plainly: ELISA on coated biotinylated PD1-ECD-AviHis. How it is done: After washing (3×90 μl/well with PBST-buffer) 25 μl/well goat-anti-human H+L-POD (JIR, JIR109-036-088)/Sheep-anti-mouse-POD (GE Healthcare; NA9310) was added in 1:2000/1:1000 dilution and incubated at RT for 1 h on shaker. After washing (3×90 μl/well with PBST-buffer) 25 μl/well TMB substrate (Roche Catalogue No. 11835033001) was added and incubated until OD 2-3. Measurement took place at 370/492 nm.

For assay [2], the target named is T1, biotinylated PD1-ECD-AviHis. As to the kind of experiment: PD-L2 replacing ELISA on coated PD1-ECD-AviHis; competitor PD-L2 Fc chimera. How it is done: After washing (3×90 μl/well with PBST-buffer) 25 μl/well goat-anti-human H+L-POD (JIR, 109-036-088) was added in 1:2000 dilution and incubated at RT for 1 h on shaker. After washing (3×90 μl/well with PBST-buffer) 25 μl/well TMB (tetramethylbenzidine) substrate (Roche, #11835033001) was added and incubated until OD 2-3. Measurement took place at 370/492 nm.
Background: In an ELISA, binding on a coated surface is turned into a signal by an enzyme label.

For assay [3] the target is unchanged. As to the kind of experiment: PD-L1 replacing ELISA on coated PD1-ECD-AviHis; competitor PD-L1 Fc chimera. As to the method: After washing (3×90 μl/well with PBST-buffer) 25 μl/well goat-anti-human H+L-POD (JIR, 109-036-088) was added in 1:1000 dilution and incubated at RT for 1 h on shaker. After washing (3×90 μl/well with PBST-buffer) 25 μl/well TMB substrate (Roche, 11835033001) was added and incubated until OD 2-3. Measurement took place at 370/492 nm.

For assay [4], the target named is T2, biotinylated cynoPD1-ECD-Biotin (cynomolgus, UniProt B0LAJ3 25-170, biotinylated; the site and any Avi or His tag are not stated in the passages shown).
T2 construct: also called cyPD1
T2 sequence (B0LAJ3 entry or part of it limits assumed): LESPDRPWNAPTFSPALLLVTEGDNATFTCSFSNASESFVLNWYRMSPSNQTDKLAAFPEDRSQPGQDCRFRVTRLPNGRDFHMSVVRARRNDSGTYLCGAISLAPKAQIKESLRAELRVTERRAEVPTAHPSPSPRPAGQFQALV
As to the kind of experiment: ELISA on coated cynoPD1-ECD-Biotin. As to the method: After washing (3×90 μl/well with PBST-buffer) 25 μl/well goat-anti-human H+L-POD (JIR, JIR109-036-088) was added in 1:1000 dilution and incubated at RT for 1 h on shaker. After washing (3×90 μl/well with PBST-buffer) 25 μl/well TMB substrate (Roche, 11835033001) was added and incubated until OD 2-3. Measurement took place at 370/492 nm.

Assay [5] deals with T3, human Fc tagged human Lag3 extra cellular domain (human, UniProt P18627 29-450, biotinylated in the epitope binning, the SA CAP SPR and the FACS competition assay).
T3 construct: In-house fusion; also called huLag3-Fc; biotinylated, huFc-tagged huLag3; not shown: human Fc tag
T3 sequence: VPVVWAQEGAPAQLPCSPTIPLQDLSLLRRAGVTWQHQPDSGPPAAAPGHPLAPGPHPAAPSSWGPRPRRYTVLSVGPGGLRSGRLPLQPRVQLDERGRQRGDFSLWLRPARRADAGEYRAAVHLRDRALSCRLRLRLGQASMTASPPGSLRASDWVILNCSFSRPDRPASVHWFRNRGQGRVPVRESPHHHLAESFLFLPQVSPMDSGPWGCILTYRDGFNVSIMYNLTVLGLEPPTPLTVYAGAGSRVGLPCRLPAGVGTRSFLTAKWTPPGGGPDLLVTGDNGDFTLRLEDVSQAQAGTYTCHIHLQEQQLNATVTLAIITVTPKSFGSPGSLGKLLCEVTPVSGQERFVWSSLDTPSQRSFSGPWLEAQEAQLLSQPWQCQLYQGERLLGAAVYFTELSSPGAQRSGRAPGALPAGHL
As to the kind of experiment: SPR (Biacore T200), huLag3-Fc captured, antibody Fab fragment as analyte, 25 °C. As to the method: Therefore two flow cells of a C1 biosensor chip were prepared in a Biacore T200 by immobilizing neutravidin, diluted to 25 μg/ml in acetate buffer pH 4.5, onto it using the ‘immobilization wizard’. […] Then, CaptureSelect™ Biotin Anti-IgG-Fc (Human) Conjugate was bound to the neutravidin, using a 20 μg/ml dilution in running buffer (HBS-EP+, GE Healthcare).
The method itself consisted of four commands per cycle. […] Second command: sample injection for 120s followed by a 1200s long dissociation at a flow speed of 30 μl/min. Third and fourth command: regeneration by injecting Glycine-HCl pH 1.5 for 30 seconds.

T1 sequence (Q15116 25-170): as the sequence (B0LAJ3 entry or part of it limits assumed) above, with E2D, A10P, L19V, A35T, R75Q, A144T counted along it

B1: PD1-0069 (antibody, V domains shown)
VH: QVQLQQSGPELVRPGVSVKISCKGSGYTFTDYAMHWVKQSHARTLEWIGVISTYSGDTNYNQKFKDKATMTVDKSSSTAYLELARMTSEDSAIYYCARLGITTGFAYWGQGTLVTVSA
VL: DIVLTQSPASLAVSLGQRATISCRASKGVSTSSYSFMHWYQQKPRQPPKLLIKYASYLESGVPARFSGSGSGTDFTLNIHPVEEEDAATYYCHHSREFPWTFGGGTKLEIK
notes: Mouse hybridoma antibody
In general, EC50 refers to the midpoint of the concentration-response curve. A high value points to a need for much substance. In general, IC50 refers to the concentration that gives 50% inhibition. Lower therefore signals greater potency in that assay. For the molecule B1, the values for the EC50 in assay [1] and in assay [4] were 0.0457 µg/mL and 0.0227 µg/mL, respectively. In addition, the IC50 was 0.089 µg/mL in assay [2] and 0.225 µg/mL in assay [3].

B2: MDX-26H10 (26H10) Fab fragment (Fab, V domains shown)
VH: QVQLVESGGGVVQPGRSLRLSCAASGFTFSSYGMHWVRQAPGKGLEWVAVIWYDGSNKYYADSVKGRFTISRDNSKNTLYLQMNSLRAEDTAVYYCAREWAVASWDYGMDVWGQGTTVTVSS
VL: not shown
As a reminder, the koff is the first-order rate constant of dissociation. In turn, B2 came in with a koff in assay [5] of 0.000399 s⁻¹.

B3: aLAG3(0403) Fab fragment (Fab, V domains shown)
VH: EVQLLESGGGLVQPGGSLRLSCAASGFTFDDYTMHWVRQAPGKGLEWVSLVSWDGGGTYYTNSVKGRFTISRDNSKNTLYLQMNSLRAEDTAVYFCAKAITDTSLYGYDYWGQGILVTVSS
VL: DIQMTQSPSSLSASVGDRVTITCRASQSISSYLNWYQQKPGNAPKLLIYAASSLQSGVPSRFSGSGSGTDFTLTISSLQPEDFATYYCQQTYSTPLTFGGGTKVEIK
B3: the koff in assay [5] came to 5e-06 s⁻¹.

B4: MDX-25F7 (25F7) Fab fragment (Fab, V domains shown)
VH: QVQLQQWGAGLLKPSETLSLTCAVYGGSFSDYYWNWIRQPPGKGLEWIGEINHNGNTNSNPSLKSRVTLSLDTSKNQFSLKLRSVTAADTAVYYCAFGYSDYEYNWFDPWGQGTLVTVSS
VL: EIVLTQSPATLSLSPGERATLSCRASQSISSYLAWYQQKPGQAPRLLIYDASNRATGIPARFSGSGSGTDFTLTISSLEPEDFAVYYCQQRSNWPLTFGQGTNLEIK
Molecule B4 yielded a koff in assay [5] of 0.000386 s⁻¹.

B5: aLAG3(0417) Fab fragment (Fab, V domains shown)
VH: EVQLVESGGGLVQPGGSLRLACAASGFTFSDYAMSWVRQAPGKGLEWVSGIDNSGYYTYYTDSVKGRFTISRDDVKNTLYLQMNSLRAEDTAVYLCTKTHSGLIVNDAFDIWGQGTMVTVSS
VL: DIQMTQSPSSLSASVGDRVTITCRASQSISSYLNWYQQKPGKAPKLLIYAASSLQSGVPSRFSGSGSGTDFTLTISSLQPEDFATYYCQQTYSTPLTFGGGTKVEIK
notes: also called aLAG3 (417)
B5 showed a koff in assay [5] of 9.48e-05 s⁻¹.

B6: PD1-0078 (antibody, V domains shown)
VH: QVQLQQPGAELVKPGASVKMSCKASGYTFTSTWMHWVKQRPGQGLEWIGAIDPSDSYTTYNQKFKGKATLTVDTSSTTAYMQLSSLTSEDSAVYYCTRSPFDYWGQGTTLTVSS
VL: DIVMTQSHKFMSTSVGDRVSITCKASQDVSTAVAWYQQKPGQSPKLLIYSASYRYTGVPDRFTGSGSGTDFTFAISSVQAEDLAVYYCQQHYSHPFTFGSGTKLEIK
Consider B6, for which the EC50 in assay [1] worked out at 0.0263 µg/mL; in assay [4], 0.0224 µg/mL. The IC50 in assay [2] was found to be 0.086 µg/mL.

B7: PD1-0073 (antibody, V domains shown)
VH: EVKLVESGGGLVKPGGSLKLSCAASGFTFSNYGMSWIRQTPEKGLEWVATISGGGRDTYYPDSVKGRFTISRDNVKNNLYLQMSSLRSEDTAFYYCASYYYGIDYWGQGTSVTVSS
VL: DIVMTQPHKFMSTSVGDRVRITCKASQDVTTAVAWYQQKPGQSPKLLIYWASTRHTGVPDRFTGSGSGTEFTLTISSVQAEDLALYYCQQHYSIPWTFGGGTKLEIK
B7: the EC50 in assay [1] was determined as 0.0151 µg/mL; in assay [4], 0.0083 µg/mL. Besides, the IC50 was determined as 0.065 µg/mL in assay [2] and 0.124 µg/mL in assay [3].

B8: aLAG3(0411) Fab fragment (Fab, V domains shown)
VH: EVHLLESGGGLVQPGGSLRLSCAASGFIVDDYTMNWVRQAPGKGLEWVSVISWDGGATYYADSVKGRFTISRDDFKNTLYLQMNSLRAEDTAVYYCAKGLTDDTLYGSDYWGQGTLVTVSS
VL: DIQMTQSPSSLSASVGDRVTITCRASQSIVSYLNWYQQKPGKAPKLLIYASSSLQSGVPSRFSGSGSGTDFTLTISSLQPEDFATYYCQQTYSTPLTFGGGTKVEIK
notes: also called aLAG3 (411)
As for B8, the koff in assay [5] turned out to be 3.87e-05 s⁻¹.
